# Values of other authors, collected in article PMC8666702 (Hypertension (Dallas, Tex. : 1979), 2021).
# Tests used:
# [1] = test system: insulin degrading enzyme (IDE)
substance,measurement,setting,value
atrial natriuretic peptide [ANP],Degradation by neprilysin (NEP),neprilysin (NEP),rapid degradation
same,Degradation by insulin degrading enzyme (IDE),[1],rapid degradation
